Source: article PMC12548092, “Exploring Helical Fraying Linked to Dynamics and Catalysis in Adenylate Kinase” (Biochemistry, 2025)

Tested on: Nc1ncnc2c1ncn2[C@@H]1O[C@H](COP(=O)(O)OP(=O)(O)OP(=O)(O)O)[C@@H](O)[C@H]1O
Assay: purified protein
Settings: varied substrate not named in table (text: substrates ATP and AMP)

| Substance | Km [µM] | kcat [s⁻¹] | kcat/Km [M⁻¹ s⁻¹] |
| --- | --- | --- | --- |
| AKeco (Escherichia coli K-12) | 110 ± 9 | 360 ± 11 | 3.3e+06 |
| AKeco (Escherichia coli K-12; E114A) | 36 ± 7 | 254 | 7.1e+06 |
